Results on one molecule are retold here after patent KR20120084755A (dated 2012).

One assay has as its target RSV A2 바이러스의 F 단백질 (Respiratory Syncytial Virus (RSV), …, UniProt P03420 26-574). As to the kind of experiment: cell-based or functional assay.
Assay [1] has as its target T1, RSV 긴 균주(Long strain)로부터의 HIS 태그 포함 재조합 F 단백질 (Respiratory Syncytial Virus (RSV), Long …, UniProt P12568 26-524).
T1 construct: not shown: poly-HIS tag
The experiment in a line: direct ELISA, purified HIS-tagged F on Ni-NTA HisSorp plates (Fig. 3b right).

RSV A2 바이러스의 F 단백질, sequence (P03420 26-574): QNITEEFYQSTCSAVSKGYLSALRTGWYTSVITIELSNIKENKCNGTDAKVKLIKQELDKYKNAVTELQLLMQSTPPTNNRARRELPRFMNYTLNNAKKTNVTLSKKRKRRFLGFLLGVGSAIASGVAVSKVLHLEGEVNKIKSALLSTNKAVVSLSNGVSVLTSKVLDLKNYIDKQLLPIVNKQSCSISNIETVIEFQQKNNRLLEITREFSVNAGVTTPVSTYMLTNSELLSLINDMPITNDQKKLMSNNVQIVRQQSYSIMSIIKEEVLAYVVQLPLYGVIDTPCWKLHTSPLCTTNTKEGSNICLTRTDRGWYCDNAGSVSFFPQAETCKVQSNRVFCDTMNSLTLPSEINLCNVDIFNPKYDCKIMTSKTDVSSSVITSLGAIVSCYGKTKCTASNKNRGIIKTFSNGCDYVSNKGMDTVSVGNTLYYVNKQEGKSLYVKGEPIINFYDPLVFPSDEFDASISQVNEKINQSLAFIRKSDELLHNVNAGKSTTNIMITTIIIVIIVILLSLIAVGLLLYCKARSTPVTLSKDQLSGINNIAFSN
T1 sequence (P12568 26-524): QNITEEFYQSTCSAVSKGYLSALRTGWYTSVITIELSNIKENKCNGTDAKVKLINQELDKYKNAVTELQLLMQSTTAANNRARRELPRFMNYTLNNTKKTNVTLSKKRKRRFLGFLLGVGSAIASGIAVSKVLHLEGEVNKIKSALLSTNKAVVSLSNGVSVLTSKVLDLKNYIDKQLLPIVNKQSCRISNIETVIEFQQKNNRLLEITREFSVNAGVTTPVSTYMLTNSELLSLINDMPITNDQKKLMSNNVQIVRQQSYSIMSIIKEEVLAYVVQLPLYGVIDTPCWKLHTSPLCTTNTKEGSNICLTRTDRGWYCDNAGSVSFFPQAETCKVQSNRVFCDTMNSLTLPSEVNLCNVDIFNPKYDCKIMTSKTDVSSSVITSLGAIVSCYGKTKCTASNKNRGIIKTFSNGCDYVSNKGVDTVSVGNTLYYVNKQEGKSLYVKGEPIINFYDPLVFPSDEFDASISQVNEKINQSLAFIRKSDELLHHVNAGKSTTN

B1: AM22 (antibody, V domains shown)
VH: QVQLVQSGAEVKKPGATVKVSCKISGHTLIKLSIHWVRQAPGKGLEWMGGYEGEVDEIFYAQKFQHRLTVIADTATDTVYMELGRLTSDDTAVYFCGTLGVTVTEAGLGIDDYWGQGTLVTVSS
VL: EIVLTQSPGTLSLSPGERATLSCRASQIVSRNHLAWYQQKPGQAPRLLIFGASSRATGIPVRFSGSGSGTDFTLTINGLAPEDFAVYYCLSSDSSIFTFGPGTKVDFK
notes: also called 재조합 AM22 mAb; AM22 항체
Consider B1, for which, in the assay with RSV A2 바이러스의 F 단백질, the “IC50, RSV A2 neutralisation on HEp2 cells (standard TCID50 culture assay)” value came out at 1.15 ng/㎖. In addition, the binding result in assay [1] is “no binding”.
